{
  "source": "patent US20220193270A1",
  "about": "“METHOD FOR ENHANCING TUMOR GROWTH” (MINERVA BIOTECHNOLOGIES CORPORATION, priority 2013, published 2022)",
  "molecules": {"B1": {"name": "NME7-AB: recombinant human NME7 variant (A and B domains, SEQ ID NO:39) secreted as a monomer; 'NME7' in the experiments means this protein (protein)", "chain": "MEKTLALIKPDAISKAGEIIEIINKAGFTITKLKMMMLSRKEALDFHVDHQSRPFFNELIQFITTGPIIAMEILRDDAICEWKRLLGPANSGVARTDASESIRALFGTDGIRNAAHGPDSFASAAREMELFFPSSGGCGPANTAKFTNCTCCIVKPHAVSEGLLGKILMAIRDAGFEISAMQMFNMDRVNVEEFYEVYKGVVTEYHDMVTEMYSGPCVAMEIQQNNATKTFREFCGPADPEIARHLRPGTLRAIFGKTKIQNAVHCTDLPEDGLLEVQYFFKILDN", "modifications": "Human NME7-AB", "notes": "'NME7' in the experiments means this protein"}},
  "key": {"[1]": {"system": "MUC1-positive T47D breast cancer cells", "assay": "RT-PCR of cancer stem cell markers and chromatin rearrangement factors in T47D cells cultured in serum-free minimal media with agent", "assay_type": "cell-based, human", "experimental": "(§1) Example 3: Agents that are able to maintain stem cells in the naïve state transform cancer cells into cancer stem cells wherein only a small number of cells are required for engraftment. Cancer cells were cultured according to standard practice. In the controls, the cancer cells were cultured in their normal media: RPMI for T47D breast cancer cells, DU145 and PC3 prostate cancer cells. However, the test agents, recombinant proteins human NME1 dimers, bacterial HSP593 NME1 dimers, human NME7-AB and 2i, were added to a serum-free minimal media to eliminate potential interference from the many growth factors and cytokines in serum.\nSerum-free Minimal Media 500 mL includes the following components: 394 mL DMEM/F12, GlutaMAX; 100 mL Knockout™ Serum Replacement; 5.0 mL 100×MEM Non-essential Amino Acid Solution; 0.9 mL P-mercaptoethanol, 55 mM stock.\n(§2) To this serum-free minimal media, rhNME1 (aka NM23) was added to a final concentration of 8 nM, or bacterial HSP593 recombinant NME1 was added to a final concentration of 8 nM, or rhNME7-AB was added to a final concentration of 4 nM, or 2i inhibitors, PD0325901 and CHIR99021, which inhibit the MAP kinase pathway and GSK3, respectively, were added to a final concentration of 3 μM and 1 μM.\nWhen a rho kinase inhibitor, “Ri” or “ROCi”, was added it was Y27632 from Stemgent (Cambridge, Mass.), added immediately before use to a final concentration of 10 uM.\nExample 3a: Breast cancer T47D cells were cultured either in the traditional RPMI growth media or in a minimal stem cell media to which was added either human NME1 dimers, also known as NM23-H1, bacterial HSP593 NME1 dimers, human NME7-AB, or kinase inhibitors known as ‘2i’. What these agents have in common is that they are each able to promote the growth of stem cells in the naive state or are able to revert primed state stem cells to the less mature naive state. We observed that some of the T47D cancer cells cultured in any of these agents became non-adherent. These ‘floaters’ were also morphologically different. The addition of a rho kinase inhibitor, called ‘Ri’ or ‘ROCP here caused most of the cells to remain attached to the surface. […] When a rho kinase inhibitor is added, all the cells remain attached but the RT-PCR measurements indicate that the resultant measure is of a mixture of the cells that were transformed and those that were not or were not yet.\nExample 3c: In this example, the effect of ‘2i’ inhibitors on cancer cells was tested. Recall that 2i is the name given to 2 small molecules, […] that inhibit the MAP kinase pathway and GSK3 respectively. […] In this experiment, we cultured MUCl-positive T47D breast cancer cells in minimal media to which was added either 2i or NME7-AB."}, "[2]": {"system": "PC3 MUC1-negative prostate cancer cells", "assay": "RT-PCR of stem cell markers in PC3 cells cultured with agent", "assay_type": "cell-based, human", "experimental": "as §1, §2\nPC3 MUCl-negative prostate cancer cells were also tested for their ability to transform into cancer stem cells when cultured in agents that are able to maintain stem cells in the naïve state. PC3 cells were cultured as described above with either human NME1 dimers, bacterial NME1 dimers or NME7-AB. […] Thus, the RT-PCR measurements of the cancer stem cell markers may be lower because measurements will be the average of transformed cells and non-transformed cells."}, "[3]": {"molecular_target": "T1, PSMGFR peptide of the MUC1* extracellular domain (Homo sapiens, UniProt P15941)", "T1 sequence (P15941 1110-1154 limits assumed)": "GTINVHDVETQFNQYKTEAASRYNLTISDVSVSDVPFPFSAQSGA", "assay": "ELISA binding to PSMGFR peptide", "settings": "FIG. 47, FIG. 48b", "source_text": "We made recombinant human NM23, also called NME1, dimers that bear the […] mutation that stabilizes dimers. We previously reported that human NME1 dimers bind to the PSMGFR portion of the extracellular domain of the MUC1* receptor (Smagghe et al. 2013). We also made recombinant human NME7-AB that is secreted as a monomer. […] We made recombinant bacterial NME proteins found in Halomonas Sp. 593 (‘HSP 593’) and in Porphyromonas gingivalis W83 that had high sequence homology to human NME1 and had been reported to exist in dimer state (FIG. 48 and FIG. 49). HSP 593 expressed well in E. coli and a significant portion was present as a dimer, which population was then purified by FPLC and confirmed the dimer population (FIG. 48a)."}, "[4]": {"system": "Human HES-3 embryonic stem cells", "assay": "Human embryonic stem cell culture with NME protein as only growth factor", "assay_type": "cell-based", "settings": "serum-free minimal base media, agent as the only growth factor or cytokine", "source_text": "Factors that are able to maintain stem cells in the naive state are also able to transform cells to a cancer-like or stem-like state and are also able to transform cancer cells to a cancer stem cell state or a more metastatic state. Herein, we have shown several examples of bacterial NME1 being able to function like human NME1 dimers, which are also able to function like NME7 or NME7-AB. However, the primary example that these factors function in a very similar way is their ability to promote the growth of stem cells, inhibit differentiation and maintain them in the naive state. […] Human HES-3 embryonic stem cells were cultured in a serum-free minimal base media with either HSP 593, human NME1 or NME7-dimers or human NME7-AB as the only growth factor or cytokine. […] Several examples have been presented here that indicate that contacting cells with an agent or agents that are able to revert stem cells from the primed state to the less mature naive state are also able to revert a wide variety of cell types to a less mature state: somatic cells to stem or progenitor cells or cancer cells to more metastatic state also called cancer stem cell state. Therefore, the invention is not meant to be limited to a specific cell type or a specific cancer cell type."}, "[5]": {"settings": "serum-free minimal media with agent vs RPMI, FIG. 6"}, "[6]": {"settings": "summary statement, cells not named"}},
  "data": [
    {"molecule": "B1", "values": [
      {"measurement": "expression of NANOG, KLF2, KLF4 and TBX3", "setting": "[1]; FIG. 6", "value": "modest increases"},
      {"measurement": "expression of CDH1 (E-cadherin), MUC1 and NANOG", "setting": "[1]; FIG. 7", "value": "increases"},
      {"measurement": "expression of CXCR4, SOX2 and OCT4", "setting": "[1]; FIG. 7", "value": "dramatic increases"},
      {"measurement": "expression of stem cell markers KLF2 and KLF4", "setting": "[1]; FIG. 7", "value": "modest increases"},
      {"measurement": "expression level of the cancer stem cell markers", "setting": "[1]; FIG. 9 and FIG. 10, combinations with 2i versus NME7-AB alone", "value": "even higher expression level"},
      {"measurement": "expression of MBD3, CHD4, BRD4 and JMJD6", "setting": "[1]; cancer cells cultured in agent, FIG. 13, FIG. 14", "value": "naturally suppressed"},
      {"measurement": "overexpression of metastasis receptor CXCR4", "setting": "[1]; floaters after seven (7) days in recombinant human NME7-AB, FIG. 21 legend", "value": "more than 100 fold"},
      {"measurement": "expression of CXCR4 over control cells cultured in RPMI media", "setting": "[1]; floating cells after 7-10 days in minimal media with 4 nM rhNME7-AB, cells used for implantation", "value": 130, "unit": "times"},
      {"measurement": "expression of chromatin rearrangement factors MBD3 and CHD4", "setting": "[1]; minimal media with agent, FIG. 13, FIG. 14", "value": "suppressed expression"},
      {"measurement": "expression of metastatic receptor CXCR4 relative to T47D cells in normal growth media", "setting": "[1]; serum-free minimal media with agent as single growth factor vs RPMI, FIG. 6", "value": "~200", "unit": "times"},
      {"measurement": "CDH1 (E-cadherin) expression increase", "setting": "[1]; serum-free minimal media with agent vs RPMI", "value": "about 10 fold"},
      {"measurement": "MUC1 expression increase", "setting": "[1]; [5]", "value": "about 10 fold"},
      {"measurement": "OCT4 expression increase", "setting": "[1]; [5]", "value": "about 50 times"},
      {"measurement": "SOX2 expression increase", "setting": "[1]; [5]", "value": "~200", "unit": "times"},
      {"measurement": "up-regulation of CXCR4", "setting": "[1]; [6]", "value": 200, "unit": "×"},
      {"measurement": "up-regulation of KLF4", "setting": "[1]; [6]", "value": 4, "unit": "×"},
      {"measurement": "up-regulation of MUC1", "setting": "[1]; [6]", "value": 10, "unit": "×"},
      {"measurement": "up-regulation of SOX2", "setting": "[1]; [6]", "value": "> 150", "unit": "×"},
      {"measurement": "expression of stem cell markers SOX2, OCT4 and NANOG", "setting": "[2]; after passage in agent, FIG. 12a", "value": "modest increases"},
      {"measurement": "expression of cancer stem cell or stem cell markers", "setting": "[2]; serial passaging in the media, FIG. 12b", "value": "decreased"},
      {"measurement": "binding to PSMGFR portion of the MUC1* extracellular domain", "setting": "[3]", "value": "bind to and dimerize"},
      {"measurement": "support of human stem cell growth", "setting": "[4]", "value": "fully supported human stem cell growth"}
    ]}
  ]
}
